Test [1] deals with AHA1, mouse (UniProt Q8BK64). In words: mCherry antibody affinity purification (IP) with SILAC LC-MS. Particulars: E14 ESCs; AA mutant in light media, EE mutant in heavy media; representative spectrum; mCherry EE:AA = 1.08 in the same panel.
Test [2] deals with FKBP4, mouse (UniProt P30416). The test is described as above. The following applies: E14 ESCs; AA mutant in light media, EE mutant in heavy media; representative spectrum; mCherry EE:AA = 1.08 in the same panel.
FKBP4, mouse, sequence (P30416 whole entry): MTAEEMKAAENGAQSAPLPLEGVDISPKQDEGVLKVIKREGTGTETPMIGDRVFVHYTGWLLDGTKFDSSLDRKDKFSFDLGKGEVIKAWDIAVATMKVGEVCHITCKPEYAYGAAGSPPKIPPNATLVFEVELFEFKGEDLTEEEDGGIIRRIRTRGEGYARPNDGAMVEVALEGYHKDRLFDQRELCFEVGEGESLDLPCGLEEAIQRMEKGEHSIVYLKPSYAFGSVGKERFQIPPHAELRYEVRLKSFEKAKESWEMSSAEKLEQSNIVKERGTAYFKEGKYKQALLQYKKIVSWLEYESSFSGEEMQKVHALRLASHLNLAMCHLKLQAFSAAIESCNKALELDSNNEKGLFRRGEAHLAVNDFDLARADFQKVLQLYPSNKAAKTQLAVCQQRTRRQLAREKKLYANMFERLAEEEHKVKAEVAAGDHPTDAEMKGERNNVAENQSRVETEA

mCherry-HSP90β-Wild type, P08238 S226E; S255E, sequence (P08238 whole entry S226E/S255E): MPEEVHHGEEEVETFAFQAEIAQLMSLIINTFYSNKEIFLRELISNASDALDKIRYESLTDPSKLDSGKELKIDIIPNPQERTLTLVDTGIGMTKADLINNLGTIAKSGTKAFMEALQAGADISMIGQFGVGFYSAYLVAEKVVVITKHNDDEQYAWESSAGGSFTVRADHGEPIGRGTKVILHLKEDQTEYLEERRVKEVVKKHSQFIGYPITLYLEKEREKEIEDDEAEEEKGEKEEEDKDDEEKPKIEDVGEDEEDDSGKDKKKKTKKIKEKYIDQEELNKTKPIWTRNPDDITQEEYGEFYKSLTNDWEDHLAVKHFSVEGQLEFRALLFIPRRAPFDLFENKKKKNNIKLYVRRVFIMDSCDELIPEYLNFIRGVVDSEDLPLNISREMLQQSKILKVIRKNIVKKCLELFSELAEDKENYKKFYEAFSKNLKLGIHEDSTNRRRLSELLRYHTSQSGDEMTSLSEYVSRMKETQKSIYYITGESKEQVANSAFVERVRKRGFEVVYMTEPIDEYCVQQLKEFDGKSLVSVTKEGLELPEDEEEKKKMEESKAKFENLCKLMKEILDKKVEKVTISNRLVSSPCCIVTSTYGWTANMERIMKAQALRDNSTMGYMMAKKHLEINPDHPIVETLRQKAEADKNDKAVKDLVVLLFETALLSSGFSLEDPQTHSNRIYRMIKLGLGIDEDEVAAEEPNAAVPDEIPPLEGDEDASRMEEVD
AHA1, mouse, sequence (Q8BK64 whole entry): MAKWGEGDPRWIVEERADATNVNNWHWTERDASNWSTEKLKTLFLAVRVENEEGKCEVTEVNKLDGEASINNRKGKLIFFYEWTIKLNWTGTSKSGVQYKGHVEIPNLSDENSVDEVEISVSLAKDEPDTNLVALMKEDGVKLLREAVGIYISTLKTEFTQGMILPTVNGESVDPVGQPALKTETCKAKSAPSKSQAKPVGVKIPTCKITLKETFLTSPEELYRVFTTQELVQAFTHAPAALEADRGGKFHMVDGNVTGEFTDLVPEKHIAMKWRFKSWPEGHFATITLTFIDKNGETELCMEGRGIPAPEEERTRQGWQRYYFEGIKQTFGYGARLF

For the substance “mCherry-HSP90β-Wild type, P08238 S226E; S255E”, the other: SILAC ratio EE:AA was 1.69 in test [1] and 1.74 in test [2].

These data come from article PMC11030525.
